Changes are numbered by the printed parent chain.
How the values were obtained:
[1] = molecular target: T1, U2AF1 (human, UniProt Q01081 1-240); test: fluorescence anisotropy; Anisotropy: 10 nM probe, 10 mM Tris-HCl pH 7.5, 1 mM EDTA, 100 mM KCl, 0.1 mM DTT, 10 ug/mL BSA, 30 min on ice; EMSA same but Tris pH 8.0, 6% native PAGE in 1x; conditions: protein: recombinant, tags: His6 (pET30a)
T1 sequence: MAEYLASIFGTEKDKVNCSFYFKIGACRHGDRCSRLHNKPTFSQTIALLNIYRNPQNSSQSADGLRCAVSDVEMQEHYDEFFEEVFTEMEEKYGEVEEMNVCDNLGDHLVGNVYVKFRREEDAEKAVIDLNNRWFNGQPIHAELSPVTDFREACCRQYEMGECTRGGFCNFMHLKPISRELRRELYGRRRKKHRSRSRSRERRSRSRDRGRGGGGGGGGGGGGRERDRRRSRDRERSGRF

[2] = molecular target: T1, U2AF1; test: fluorescence anisotropy; 100 mM K+; Anisotropy: 10 nM probe, 10 mM Tris-HCl pH 7.5, 1 mM EDTA, 100 mM KCl, 0.1 mM DTT, 10 ug/mL BSA, 30 min on ice; EMSA same but Tris pH 8.0, 6% native PAGE in 1x; conditions: protein: recombinant, tags: His6 (pET30a), label: 5' TAMRA
[3] = molecular target: T2, U2AF1-ZF2 (human, UniProt Q01081 149-176); test: fluorescence anisotropy; Anisotropy: 10 nM probe, 10 mM Tris-HCl pH 7.5, 1 mM EDTA, 100 mM KCl, 0.1 mM DTT, 10 ug/mL BSA, 30 min on ice; EMSA same but Tris pH 8.0, 6% native PAGE in 1x; conditions: protein: recombinant; tags: His6 (pET30a); label: 5' TAMRA; parallel intramolecular G4
T2 chain: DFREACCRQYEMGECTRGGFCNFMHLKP

B1: cMYC G4-R-loop (mixed)
?: GCGAGGGGCGGCCGGAGAGC
DNA 1: CCGCTCCGGCAGCTCAGGCCCTGGCGCTCTCCGGCCGCCCCTCGCCCGCCCGGGCTCCTCCTCCTGTGCC
DNA 2: GGCACAGGAGGAGGAGTTTTTTCTGAGGGTGGGGAGGGTGGGGAAGGCATTTTTTGAGCTGCCGGAGCGG
In the case of B1, the Kd ([1]; label: 5' Cy3 on RNA strand, R-loop bubble: strand 1 RNA, strand 2 template DNA, strand 3 displaced DNA, some slow-migrating putative intermolecular G4) is reported as 0.0035 µM.

B2: cMYC M4-R-loop (mixed)
?: GCGAGGGGCGGCCGGAGAGC
DNA 1: B1 DNA 1
DNA 2: B1 DNA 2 with G32A, G37T
For B2, the Kd ([1]; label: 5' Cy3 on RNA strand, R-loop bubble: strand 1 RNA, strand 2 template DNA, strand 3 displaced DNA) was 0.013 µM.

With UUUUAGGU (ssRNA) [U2AF1_RNA Motif (AG motif)] the Kd ([1]; label: 5' Cy3) was 0.35 µM.

With AGGGAGGGCTCTGTGAGGAGGG (ssDNA) [cKIT_M4] the Kd [2] was 0.019 ± 0.004 µM.

In the case of TGAGGGTGAGGAGTGTGGGGAAGG (ssDNA) [cMYC_M4], the Kd [2] is reported as 0.022 ± 0.001 µM.

B3: RNA/DNA hybrid (DNA:RNA)
?: GCGAGGGGCGGCCGGAGAGC
DNA: GCTCTCCGGCCGCCCCTCGC
B3 showed a Kd ([1]; label: 5' Cy3 on RNA strand, blunt, strand 1 RNA, strand 2 DNA) of 0.0067 µM.

In the case of AAAGGGTTAGGGTTAGGGTTAGGGAA (structured_DNA) [hTel_G4], the Kd ([2]; hybrid-type intramolecular G4) is reported as 0.05 ± 0.006 µM.

TGAGGGTGGGGAGGGTGGGGAAGG (structured_DNA) [cMYC_G4] was tested, and the Kd ([2]; parallel intramolecular G4) was 0.0108 ± 0.0009 µM and the binding signal [3] was > 10 fold lower affinity than full length.

In the case of GGGTTAGTGTTAGTGTTAGGGT (ssDNA) [2KF8_M4], the Kd [2] is reported as 0.01 ± 0.002 µM.

Work on AGGGAGGGCGCTGGGAGGAGGG (structured_DNA) [cKIT_G4] yielded a Kd ([2]; parallel intramolecular G4) of 0.015 ± 0.002 µM.

AAAGGGTTAGTGTTAGTGTTAGGGAA (ssDNA) [hTel_M4] gave a Kd [2] of 0.06 ± 0.006 µM.

For GGGTTAGGGTTAGGGTTAGGGT (structured_DNA) [2KF8_G4], the Kd ([2]; antiparallel intramolecular G4) was 0.009 ± 0.001 µM.

— publication PMC10557143, “Promoter R-Loops Recruit U2AF1 to Modulate Its Phase Separation and RNA Splicing”
